Reference: patent publication US20110118131A1 (published 2011)

T1: Ep-CAM (UniProt P16422 24-265, limits assumed)
T1 construct: Antigen of the Biacore analysis of ING-1 variants
T1 sequence (looked up): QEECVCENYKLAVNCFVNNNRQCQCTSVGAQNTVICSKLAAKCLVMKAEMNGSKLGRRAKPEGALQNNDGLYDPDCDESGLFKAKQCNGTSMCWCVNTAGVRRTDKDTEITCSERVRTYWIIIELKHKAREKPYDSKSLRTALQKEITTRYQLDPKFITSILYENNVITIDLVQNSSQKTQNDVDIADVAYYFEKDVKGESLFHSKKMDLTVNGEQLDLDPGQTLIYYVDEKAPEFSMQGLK

B1: ING-1 heavy chain G33H (Fab, V domains shown)
VH: QIQLVQSGPELKKPGETVKISCKASGYTFTKYHMNWVKQAPGKGLKWMGWINTYTEEPTYGDDFKGRFAFSLETSASTANLQINNLKSEDTATYFCARFGSAVDYWGQGTSVTVSS
VL: DIVMTQAAFSNPVTLGTSGSISCRSSKSLLHSNGITYLYWYLQKPGQSPQLLIYQMSNLASGVPDRFSSSGSGTDFTLRISRVEAEDVGVYYCAQNLELPRTFGGGTKLEMKR
B2: ING-1 heavy chain G33K (Fab, V domains shown)
VH: QIQLVQSGPELKKPGETVKISCKASGYTFTKYKMNWVKQAPGKGLKWMGWINTYTEEPTYGDDFKGRFAFSLETSASTANLQINNLKSEDTATYFCARFGSAVDYWGQGTSVTVSS
VL: DIVMTQAAFSNPVTLGTSGSISCRSSKSLLHSNGITYLYWYLQKPGQSPQLLIYQMSNLASGVPDRFSSSGSGTDFTLRISRVEAEDVGVYYCAQNLELPRTFGGGTKLEMKR
B3: ING-1 heavy chain G33N (Fab, V domains shown)
VH: QIQLVQSGPELKKPGETVKISCKASGYTFTKYNMNWVKQAPGKGLKWMGWINTYTEEPTYGDDFKGRFAFSLETSASTANLQINNLKSEDTATYFCARFGSAVDYWGQGTSVTVSS
VL: DIVMTQAAFSNPVTLGTSGSISCRSSKSLLHSNGITYLYWYLQKPGQSPQLLIYQMSNLASGVPDRFSSSGSGTDFTLRISRVEAEDVGVYYCAQNLELPRTFGGGTKLEMKR
B4: ING-1 heavy chain G33Q (Fab, V domains shown)
VH: QIQLVQSGPELKKPGETVKISCKASGYTFTKYQMNWVKQAPGKGLKWMGWINTYTEEPTYGDDFKGRFAFSLETSASTANLQINNLKSEDTATYFCARFGSAVDYWGQGTSVTVSS
VL: DIVMTQAAFSNPVTLGTSGSISCRSSKSLLHSNGITYLYWYLQKPGQSPQLLIYQMSNLASGVPDRFSSSGSGTDFTLRISRVEAEDVGVYYCAQNLELPRTFGGGTKLEMKR
B5: ING-1 heavy chain G33R (Fab, V domains shown)
VH: QIQLVQSGPELKKPGETVKISCKASGYTFTKYRMNWVKQAPGKGLKWMGWINTYTEEPTYGDDFKGRFAFSLETSASTANLQINNLKSEDTATYFCARFGSAVDYWGQGTSVTVSS
VL: DIVMTQAAFSNPVTLGTSGSISCRSSKSLLHSNGITYLYWYLQKPGQSPQLLIYQMSNLASGVPDRFSSSGSGTDFTLRISRVEAEDVGVYYCAQNLELPRTFGGGTKLEMKR
B6: ING-1 heavy chain G33W (Fab, V domains shown)
VH: QIQLVQSGPELKKPGETVKISCKASGYTFTKYWMNWVKQAPGKGLKWMGWINTYTEEPTYGDDFKGRFAFSLETSASTANLQINNLKSEDTATYFCARFGSAVDYWGQGTSVTVSS
VL: DIVMTQAAFSNPVTLGTSGSISCRSSKSLLHSNGITYLYWYLQKPGQSPQLLIYQMSNLASGVPDRFSSSGSGTDFTLRISRVEAEDVGVYYCAQNLELPRTFGGGTKLEMKR
B7: ING-1 heavy chain G100D (Fab, V domains shown)
VH: QIQLVQSGPELKKPGETVKISCKASGYTFTKYGMNWVKQAPGKGLKWMGWINTYTEEPTYGDDFKGRFAFSLETSASTANLQINNLKSEDTATYFCARFDSAVDYWGQGTSVTVSS
VL: DIVMTQAAFSNPVTLGTSGSISCRSSKSLLHSNGITYLYWYLQKPGQSPQLLIYQMSNLASGVPDRFSSSGSGTDFTLRISRVEAEDVGVYYCAQNLELPRTFGGGTKLEMKR
B8: ING-1 heavy chain G100E (Fab, V domains shown)
VH: QIQLVQSGPELKKPGETVKISCKASGYTFTKYGMNWVKQAPGKGLKWMGWINTYTEEPTYGDDFKGRFAFSLETSASTANLQINNLKSEDTATYFCARFESAVDYWGQGTSVTVSS
VL: DIVMTQAAFSNPVTLGTSGSISCRSSKSLLHSNGITYLYWYLQKPGQSPQLLIYQMSNLASGVPDRFSSSGSGTDFTLRISRVEAEDVGVYYCAQNLELPRTFGGGTKLEMKR
B9: ING-1 heavy chain G100F (Fab, V domains shown)
VH: QIQLVQSGPELKKPGETVKISCKASGYTFTKYGMNWVKQAPGKGLKWMGWINTYTEEPTYGDDFKGRFAFSLETSASTANLQINNLKSEDTATYFCARFFSAVDYWGQGTSVTVSS
VL: DIVMTQAAFSNPVTLGTSGSISCRSSKSLLHSNGITYLYWYLQKPGQSPQLLIYQMSNLASGVPDRFSSSGSGTDFTLRISRVEAEDVGVYYCAQNLELPRTFGGGTKLEMKR
B10: ING-1 heavy chain G100H (Fab, V domains shown)
VH: QIQLVQSGPELKKPGETVKISCKASGYTFTKYGMNWVKQAPGKGLKWMGWINTYTEEPTYGDDFKGRFAFSLETSASTANLQINNLKSEDTATYFCARFHSAVDYWGQGTSVTVSS
VL: DIVMTQAAFSNPVTLGTSGSISCRSSKSLLHSNGITYLYWYLQKPGQSPQLLIYQMSNLASGVPDRFSSSGSGTDFTLRISRVEAEDVGVYYCAQNLELPRTFGGGTKLEMKR
B11: ING-1 heavy chain G100Q (Fab, V domains shown)
VH: QIQLVQSGPELKKPGETVKISCKASGYTFTKYGMNWVKQAPGKGLKWMGWINTYTEEPTYGDDFKGRFAFSLETSASTANLQINNLKSEDTATYFCARFQSAVDYWGQGTSVTVSS
VL: DIVMTQAAFSNPVTLGTSGSISCRSSKSLLHSNGITYLYWYLQKPGQSPQLLIYQMSNLASGVPDRFSSSGSGTDFTLRISRVEAEDVGVYYCAQNLELPRTFGGGTKLEMKR
B12: ING-1 heavy chain G100W (Fab, V domains shown)
VH: QIQLVQSGPELKKPGETVKISCKASGYTFTKYGMNWVKQAPGKGLKWMGWINTYTEEPTYGDDFKGRFAFSLETSASTANLQINNLKSEDTATYFCARFWSAVDYWGQGTSVTVSS
VL: DIVMTQAAFSNPVTLGTSGSISCRSSKSLLHSNGITYLYWYLQKPGQSPQLLIYQMSNLASGVPDRFSSSGSGTDFTLRISRVEAEDVGVYYCAQNLELPRTFGGGTKLEMKR
B13: ING-1 heavy chain G100Y (Fab, V domains shown)
VH: QIQLVQSGPELKKPGETVKISCKASGYTFTKYGMNWVKQAPGKGLKWMGWINTYTEEPTYGDDFKGRFAFSLETSASTANLQINNLKSEDTATYFCARFYSAVDYWGQGTSVTVSS
VL: DIVMTQAAFSNPVTLGTSGSISCRSSKSLLHSNGITYLYWYLQKPGQSPQLLIYQMSNLASGVPDRFSSSGSGTDFTLRISRVEAEDVGVYYCAQNLELPRTFGGGTKLEMKR
B14: ING-1 heavy chain K31N (Fab, V domains shown)
VH: QIQLVQSGPELKKPGETVKISCKASGYTFTNYGMNWVKQAPGKGLKWMGWINTYTEEPTYGDDFKGRFAFSLETSASTANLQINNLKSEDTATYFCARFGSAVDYWGQGTSVTVSS
VL: DIVMTQAAFSNPVTLGTSGSISCRSSKSLLHSNGITYLYWYLQKPGQSPQLLIYQMSNLASGVPDRFSSSGSGTDFTLRISRVEAEDVGVYYCAQNLELPRTFGGGTKLEMKR
B15: ING-1 heavy chain K31Y (Fab, V domains shown)
VH: QIQLVQSGPELKKPGETVKISCKASGYTFTYYGMNWVKQAPGKGLKWMGWINTYTEEPTYGDDFKGRFAFSLETSASTANLQINNLKSEDTATYFCARFGSAVDYWGQGTSVTVSS
VL: DIVMTQAAFSNPVTLGTSGSISCRSSKSLLHSNGITYLYWYLQKPGQSPQLLIYQMSNLASGVPDRFSSSGSGTDFTLRISRVEAEDVGVYYCAQNLELPRTFGGGTKLEMKR
B16: ING-1 heavy chain N52D (Fab, V domains shown)
VH: QIQLVQSGPELKKPGETVKISCKASGYTFTKYGMNWVKQAPGKGLKWMGWIDTYTEEPTYGDDFKGRFAFSLETSASTANLQINNLKSEDTATYFCARFGSAVDYWGQGTSVTVSS
VL: DIVMTQAAFSNPVTLGTSGSISCRSSKSLLHSNGITYLYWYLQKPGQSPQLLIYQMSNLASGVPDRFSSSGSGTDFTLRISRVEAEDVGVYYCAQNLELPRTFGGGTKLEMKR
B17: ING-1 heavy chain N52E (Fab, V domains shown)
VH: QIQLVQSGPELKKPGETVKISCKASGYTFTKYGMNWVKQAPGKGLKWMGWIETYTEEPTYGDDFKGRFAFSLETSASTANLQINNLKSEDTATYFCARFGSAVDYWGQGTSVTVSS
VL: DIVMTQAAFSNPVTLGTSGSISCRSSKSLLHSNGITYLYWYLQKPGQSPQLLIYQMSNLASGVPDRFSSSGSGTDFTLRISRVEAEDVGVYYCAQNLELPRTFGGGTKLEMKR
B18: ING-1 heavy chain N52F (Fab, V domains shown)
VH: QIQLVQSGPELKKPGETVKISCKASGYTFTKYGMNWVKQAPGKGLKWMGWIFTYTEEPTYGDDFKGRFAFSLETSASTANLQINNLKSEDTATYFCARFGSAVDYWGQGTSVTVSS
VL: DIVMTQAAFSNPVTLGTSGSISCRSSKSLLHSNGITYLYWYLQKPGQSPQLLIYQMSNLASGVPDRFSSSGSGTDFTLRISRVEAEDVGVYYCAQNLELPRTFGGGTKLEMKR
B19: ING-1 heavy chain N52H (Fab, V domains shown)
VH: QIQLVQSGPELKKPGETVKISCKASGYTFTKYGMNWVKQAPGKGLKWMGWIHTYTEEPTYGDDFKGRFAFSLETSASTANLQINNLKSEDTATYFCARFGSAVDYWGQGTSVTVSS
VL: DIVMTQAAFSNPVTLGTSGSISCRSSKSLLHSNGITYLYWYLQKPGQSPQLLIYQMSNLASGVPDRFSSSGSGTDFTLRISRVEAEDVGVYYCAQNLELPRTFGGGTKLEMKR
B20: ING-1 heavy chain N52K (Fab, V domains shown)
VH: QIQLVQSGPELKKPGETVKISCKASGYTFTKYGMNWVKQAPGKGLKWMGWIKTYTEEPTYGDDFKGRFAFSLETSASTANLQINNLKSEDTATYFCARFGSAVDYWGQGTSVTVSS
VL: DIVMTQAAFSNPVTLGTSGSISCRSSKSLLHSNGITYLYWYLQKPGQSPQLLIYQMSNLASGVPDRFSSSGSGTDFTLRISRVEAEDVGVYYCAQNLELPRTFGGGTKLEMKR
B21: ING-1 heavy chain N52Q (Fab, V domains shown)
VH: QIQLVQSGPELKKPGETVKISCKASGYTFTKYGMNWVKQAPGKGLKWMGWIQTYTEEPTYGDDFKGRFAFSLETSASTANLQINNLKSEDTATYFCARFGSAVDYWGQGTSVTVSS
VL: DIVMTQAAFSNPVTLGTSGSISCRSSKSLLHSNGITYLYWYLQKPGQSPQLLIYQMSNLASGVPDRFSSSGSGTDFTLRISRVEAEDVGVYYCAQNLELPRTFGGGTKLEMKR

Molecular target: T1, Ep-CAM
Experiment: Biacore, Fab periplasmic extract

Binder	fold difference in affinity vs original [fold]	binding result
B1	0.02	
B2		no binding
B3		no binding
B4	0.06	
B5	0.03	
B6		no binding
B7		no binding
B8		no binding
B9		no binding
B10		no binding
B11		no binding
B12		no binding
B13		no binding
B14		no binding
B15	1	
B16	0.02	
B17		no binding
B18		no binding
B19	0.02	
B20		no binding
B21		no binding
